Target: Pseudomonas aeruginosa type I-F CRISPR-Cas surveillance complex (Csy complex) (P. aeruginosa) (UniProt Q02MM1)
Experiment: SEC; competition: purified Csy complex pre-incubated 1 h with a 10-fold molar excess of FLAG-tagged AcrF1 (mutant or wild type), then an equal amount of HA-tagged wild-type AcrF1 added for 1 h; size exclusion chromatography; peak fractions by SDS-PAGE, silver staining and Western blot

| percent exchanged with HA-tagged wild-type AcrF1 at 1 h [%] | Substance |
| --- | --- |
| 50 | FLAG-tagged AcrF1 E31A (natural protein) |
| 50 | FLAG-tagged AcrF1 Y20A (natural protein) |

From article PMC5062604
